The nanobody polyreactivity screen of Harvey et al. (2022)

Test: yeast display, Sf9 membrane polyspecificity reagent, FACS + sequencing; frameworks hold sequencing errors
In short: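 Polyreactivity labels are assigned by the sorting gate from which each nanobody was recovered. The gates were low and high (top ~1%), set on anti-HA fluorescence for expression and streptavidin fluorescence for reagent binding. Before sorting, galactose-induced (36–48 hours) yeast display cells were stained for 1 hour at 4 °C with 10% biotinylated, detergent-solubilized Sf9 membrane reagent.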

Sequence | polyreactivity (PSR sort gate)
QVQLVESGGCLVQAGGSLRLSCAASGRIFQAYAMGWYRQAPGKERELVAAINRSGNTNYADSVKGRFTISRDNAKNTVYLQMNSLKPEDTAVYYCAADAVSFSYFGYQRMDYWGQGTQVTVSS | low polyreactivity
QVQLVESGGGLVQAGGSLRLSCAASGRTFGYAMGWYRQAPGKERERVAAISSGGGRTYYADSVKGRFTISRDNAKNTVYLQMNSLKPEDTAVFYCNARHIFGASRRARFGYWGQGTQVTVSS | high polyreactivity
QVQLVESGGGLVQAGGSLRLSCAASGYTFGKYVMGWYRQAPGKERELVAAISKSGSGTYYADSVKGRFTISRDNAKNTVYFQMNSLKPEDTAVYYFAARGYGFPELDYWGQGTQVTVSS | high polyreactivity
QVQLVESGGGLVQAGGSLRLSCAASGFTFGYYAMGWYRQAPGKERELVAAITYDGDITYYADSVKGRFTISRDNAKNTVYLQMNSLKPEDTAVYYCNRDVLTFNYDYWGQGTQVTVSS | low polyreactivity
QVQLVESGGGLVQAGGSLRLSCAASGRTFRDNAMGWYRQAPGKERELVAAISWSGGSTYYADSVKGRFTISRDNAKNTVYLQMNSLKPEDTAVYYCAASGYYRYTPFRYDHWGQGTQVTVSS | low polyreactivity
QVQHVESGGGLLQAGGSLRLSCAASGRIFWINAMGWYIQAPGKERELVATISSGSTSYADSVKGRFTITRDNAKNTVYLQMNSLKPEDTAVYYCAVSLRYTRSGAYDYWGQGTQVTVSS | low polyreactivity
QVQLVESGGGLVQAGGSLRLSCAASGSTFPYNAKGWYRQAPGKERELVAAIDYSGGSTYADSVKGRFTISRDNAKNTVYLQMNSLKPEDTAVYYCAYCRVVVYDVSGDDEDYDYWRQGTQVTVSS | low polyreactivity
QVQLVESGGGLVQAGGSLRLSCAASGSTFSRNAMGWYRQAPGKERELVAAINYSGGITYYADSVKGRFTISRDNAKNTVYLQMNSLKPADTAVYYCAKRGIGDPGQHPLGFGYWGQGTQVTVSS | low polyreactivity
QVQLVESGGGLVQAGGSHRLSCAASGRTFYRYPMGWYRQAPGKERELVATINSGTSTSYADSVKGRFTISRDNAKYTVYLQMNSLKPEDTAVYYCAAKLWTLSFSSRFGGMYYWGQGTQVTVSS | high polyreactivity
QVQLVESGGGLVQAGGSLRLSCAASGIIFRNNAMGWYRQAPGKEREFVARISKRGGSTYYADSVKGRFTISRDNAKNTVYLQQNSLKPEDTAVYYCAKGYGSGSYLYDYWGQGTQVTVSS | high polyreactivity
QVQLVESGGGLVQAGGSLRLSCAASGFTFGRYAMGWYRQAPGKERELVAAITRGSGGSYYADSVKGRFTISRDIAKNTVYLQMNSLKPDDTAVYYCATGSRSRGALRYAHFDYWGQGTQVTVSS | high polyreactivity
QVQLVESGGGLVKAGGSLRLSCAASGLISAVYALGWYRQAPGKERELVAAITTSGGRTYYADSVKGRFTISRDNAKNTVYLQMNSLKPEDTAVYYCAAEHVRYLNPEFDYWGQGTQVTVSS | high polyreactivity
QVQLVESGGGLVQAGGSLGLSCAASGLTFTHYTMGWYRQAPGKERELVAGISQTGGSTYYADSVKGRFTISRDNAKNTVYLQMNSLKPEDTAVYYCSRVFPRPRTGYYYWGQGTQVTVSS | high polyreactivity
QVQLVESGGGLVQAGGSLRLSCAASGRIYGYTMGWYRQAPGKERELVAAITRNGGSTYYADSVKGRFTISRDNSKNSVYLQMNSLKPEDTAVYYCAARNAFGTYYYWGQGTQVTVSS | high polyreactivity
QVQLVESGGGIVQAGGSLRLSCAASGIIFTGNAMGWYIQAPGKERELVAAITSGDTTNYADSVKGRFTISRDNAKNTVYLQMNSLKPEDTAVYYCAKELQVRQAGDYWGQGTQVTVSS | low polyreactivity
QVQLVESGGGLVQAGGSLRLSCAASGSTFFIYAMGWYRQAPGKERELVAAISGSGGTTYYADSVKGRFTISRDNAKNTVYLQMNSLKPEDTAVYYCNKDYYPGSYDYWGQGTQVTVSS | low polyreactivity

Sequence | polyreactivity (PSR sort gate)
QVQLVESGGGLVQAGGTLRLSGAASGRTLRRYAMGWYRQAPGKARELVATISGRGGSTYYADSVKGRFTISRDNAKNTVYLQMNSLKPEDTAVYYCAADSVLSKYDYWGQGTQVTVSS | high polyreactivity
QVQLVESGGGLVQAGGSLRLSCAASGFTFRTYAMGRYRQAPGTERELVAAINVSGGTYYADSVKGRFTISRDNAKNTVYLQMNSLKPEDSAVYYCTANRFRTGFDYWGQGTQVTVSS | low polyreactivity
QVQLVESGGGLVQAGGSLRLSCAASGSIFPWNAMGWYRKAHGKARELVAVISQNGGRTYYADSVKGSFTISRDKAKNTVYLQMNSLKPEDTAVYYCAARPRLPRQIGGDGHLDDYWGQGTQVTVSS | high polyreactivity
QVQLLESGGGLVQAGGSLRLSCAASGSIFVINVMGWYRQAPRKDRELVATITGGRSTKYADSVNGRFTISRDNAKNTVYLQMNSLKPEDTAVYYCNIQSKSRGVHDPSGYDYWGQGTQVTVSS | low polyreactivity
QVQLVESVGGLVQAGGSLRLSCAGSGFTFYRYTMGWYRQAPGTERELVAAISFSGGITRYADSVKGRFTISRDNAKNTVYLQMNSLKPEDTAVYYCNVVGPSAYLSWHKSGDYWGQGTQVTVSS | low polyreactivity
QVQLVESGGGLVQAGGSLRLSCAASGFIFRFYAMGWYRQAPGKERELVAAISSDGSTNYADSVKGRFTISRDNAKNTVYLQMNSLKPEDTAVYYCNADYYEYYSGPTLVVYIYGYWGQGTQVTVSS | low polyreactivity
QVQLVESGLGLVQAAGSLRLSCAASGSILYSYAMGWYRQAPGKERELFAAITGAGASTNYADSVKGRFTISRDNGKNTVYLQMNSLKPEDTAVYYCNAEYNPYHYYKAWVYTYDYGYWGQGTQVTVSS | low polyreactivity
QVQIVESGGGLVQAGGSLRLTCAASGSIFGDYAMGWYRQASGKERELVASISESGGSTYYADSVKGRFTISRDNAKNTVYLQMISLKPEDTAVYYCNTDYDYGWWDLGEYEYWGHGTQVTVSS | low polyreactivity
QVQLVESGGGLVQAGGSLRLSCAASGSIFYTYAMGWYRQAPGKERELVATIRVSGVSTYADSVKGRFTISRDNAKNTVYLQMNSLKPEDTAVYYCNKVSFYEPIYWQQGYVLLDYWGQGTQVTVSS | low polyreactivity
QVQLVESGGGLVQAGGSLRLSCAASGSTFPRYAMGWYRQAPGKEREFVAVIWSGGSTYYADSVKGRFTISRDNAKNTVYLQMNSLKPEDTAVYYCAAEYHTLSKYSGYATHDYWGQGTQVTVSS | low polyreactivity
QVQLVESGGGLVQAGGSLRLSCAASGSTFSTNAMGWYRQAPGKERELVAAISRSGGSTYYADSVKGRFTISRDNAKNTVYLQMNSLKPEDTAVYYCARYSYRGTNVRYDYWGQGTQVTVSS | high polyreactivity
QVQLVESGGGLVQAGGILRLSCAASGRIFGYNAMGWYRQAPGKERELVAAIRQRAGSTNYADSVKGRFTISRDNSKNTVYLQMKSLKPEDTAVYYCAVDGNFFGEVRPYDYWGQGSQVTVSS | low polyreactivity
QVQLVESGGGLVQAGGSLRLSCAASGIIFGYYAMGWSRKAPGKERELVAAISRGGNTNYADSVKGRFTISRDNAKNTVYLQMNSLKPEDTAVYYCAADFWSRIIYFYAVDVDYWGQGTQVTVSS | low polyreactivity
QVQLVESGGGLVQAGGSLSFSCAASGSIFDYNAMGWYRQAPGKERELVADIRGIGGSTYYADSVKGRFTISRDNAKNTFYLQMNSLIPEDTAVYYCNTSTLGGYYWGQGTQVTVSS | low polyreactivity
QVQLVESGGGLVQAGGSLRLSCAASGFILRYNAMGWYRQAPGKERELVAAISYTGDRTYYADSVKGRFTISRDNAKNTVYLQMNSLKPEDTAVYYCNAGKGQRALVRIGSKLMYYWGQGTQVTVSS | high polyreactivity
